Laboratory results as given in patent US20230340128A1 (Xencor, published 2023).

Experiments:
human mesothelin (MSLN) = biological target: T1, human mesothelin (MSLN) (human, UniProt Q13421 296-580, limits assumed); test: KD of its MSLN binding domain as quoted in the text
T1 construct: Antigen of the Octet KD values

human CD28 [1] = biological target: T2, human CD28 (human, UniProt P10747 19-152, limits assumed); test: KD of its CD28 binding domain as quoted in the text
T2 construct: also called Cluster of Differentiation 28; Tp44

human CD28 [2] = biological target: T2, human CD28; test: method not stated; Monovalent CD28 KD, table headed 1A7[CD28] H1.14_L1.71 (aka 37 nM)

Kd (human mesothelin (MSLN)): 0.0003 µM | Kd (human CD28 [1]): 0.037 µM | Kd (human CD28 [2]): 0.06 µM
B1: XENP39553 (bispecific antibody)
heavy: QVQLVQSGAEVKKPGASVKVSCKASGYTFTSYWMHWVRQAPGQGLEWMGMIHPNSDNTIYYEKFQGRVTMTVDKSISTAYMELSRLRSDDTAVYYCAIIITPVVPKFDYWGQGTLVTVSSASTKGPSVFPLAPSSKSTSGGTAALGCLVKDYFPEPVTVSWNSGALTSGVHTFPAVLQSSGLYSLSSVVTVPSSSLGTQTYICNVNHKPSDTKVDKKVEPKSCDKTHTCPPCPAPPVAGPSVFLFPPKPKDTLMISRTPEVTCVVVDVKHEDPEVKFNWYVDGVEVHNAKTKPREEEYNSTYRVVSVLTVLHQDWLNGKEYKCKVSNKALPAPIEKTISKAKGQPREPQVYTLPPSREEMTKNQVSLTCDVSGFYPSDIAVEWESDGQPENNYKTTPPVLDSDGSFFLYSKLTVDKSRWEQGDVFSCSVLHEALHSHYTQKSLSLSPGK
scFv-Fc: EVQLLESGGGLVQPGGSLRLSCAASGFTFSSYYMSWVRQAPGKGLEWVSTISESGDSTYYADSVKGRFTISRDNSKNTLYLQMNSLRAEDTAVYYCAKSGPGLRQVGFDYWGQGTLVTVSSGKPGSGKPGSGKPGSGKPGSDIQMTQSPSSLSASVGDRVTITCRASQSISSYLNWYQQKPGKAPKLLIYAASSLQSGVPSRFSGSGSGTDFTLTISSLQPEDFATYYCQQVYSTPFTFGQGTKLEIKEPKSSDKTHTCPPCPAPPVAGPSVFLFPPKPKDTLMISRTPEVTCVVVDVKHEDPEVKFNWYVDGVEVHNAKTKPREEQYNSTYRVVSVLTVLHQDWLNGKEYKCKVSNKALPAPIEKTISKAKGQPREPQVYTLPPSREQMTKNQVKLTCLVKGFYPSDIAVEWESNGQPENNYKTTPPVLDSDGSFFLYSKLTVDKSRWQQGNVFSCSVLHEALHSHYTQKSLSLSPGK
light: DIVMTQSPDSLAVSLGERATINCKASHDVGTSVAWYQQKPGQSPKLLIYWASTRHTGVPDRFTGSGSGTDFTLTISSLQAEDVAVYFCQQYSSYPLTFGAGTKLEIKRTVAAPSVFIFPPSDEQLKSGTASVVCLLNNFYPREAKVQWKVDNALQSGNSQESVTEQDSKDSTYSLSSTLTLSKADYEKHKVYACEVTHQGLSSPVTKSFNRGEC
notes: also called MSLN (0.3 nM) x CD28 (37 nM) 1+1 Fab-scFv-Fc
